Source: patent US11365219B2, “Cyclic peptides as protein targeting agents” (California Institute of Technology, priority 2013, dated 2022)
Each block holds one compound with its values, some of them ahead of it. Numbered stars: 1 amine (or outer) side, 2 acyl side, 3 side chain; on linkers, the order of the positions; unused ones are H or OH. Bridge positions count the residues as written; N and C are the ends. Square brackets hold non-standard residues; d marks the D form. Ends that are not written are not given here. Peptide text beside a SMILES is read from it. * marks the point of attachment. Biotin = O=C1N[C@H]2[C@H](CS[C@H]2CCCCC(=O)*)N1; X1 = O=C(CCCOCCOCCOCCOCCOCCN[*:1])[*:2]; Ethylenediamine = C(CN[*:2])N[*:1]; R8 = C=CCCCCCC[C@@](C)(N)C(=O)O; S5 = C=CCCC[C@](C)(N)C(=O)O; Pra = C#CC[C@H](N)C(=O)O

Experiments:
PfHRP2 protein = PfHRP2 protein (Plasmodium falciparum, UniProt P05227); assay: biochemical
Protocol: For the selectivity assay, the effect of binding of the ligand to the PfHRP2 protein with varying serum concentrations was determined.

full-length Akt2 protein = biological target: T1, full-length Akt2 protein (Homo sapiens, UniProt P31751); assay: affinity estimation from immunoassays capturing full-length Akt2 protein (FIG. 6D); assay type: binding; details: cyclic vs linear peptide
T1 construct: compared against the corresponding linear peptide for capturing full-length Akt2 protein
T1 sequence (P31751 whole entry): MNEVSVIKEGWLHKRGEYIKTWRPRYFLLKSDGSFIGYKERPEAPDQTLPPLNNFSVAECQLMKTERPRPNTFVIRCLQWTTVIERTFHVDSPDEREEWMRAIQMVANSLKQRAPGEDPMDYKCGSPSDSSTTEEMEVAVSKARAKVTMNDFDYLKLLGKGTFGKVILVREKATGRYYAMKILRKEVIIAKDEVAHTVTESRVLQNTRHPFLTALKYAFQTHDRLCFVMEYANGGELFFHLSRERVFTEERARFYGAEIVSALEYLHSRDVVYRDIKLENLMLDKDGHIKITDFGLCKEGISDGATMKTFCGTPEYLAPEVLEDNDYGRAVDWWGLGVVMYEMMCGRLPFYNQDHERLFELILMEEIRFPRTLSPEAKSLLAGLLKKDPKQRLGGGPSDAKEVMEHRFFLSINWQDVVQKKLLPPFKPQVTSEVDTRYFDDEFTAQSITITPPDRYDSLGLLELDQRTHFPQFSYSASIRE
Text: (§1) The structure of an isolated hit, with sequence of variable region YYTYT (SEQ ID NO:4) is illustrated in FIG. 6A. […] FIG. 6D is an affinity estimation from immunoassays in which the Cy(YYTYT (SEQ ID NO:4)-Tz4) peptide is compared against the corresponding linear peptide for capturing full-length Akt2 protein. […] Finally, FIG. 6E presents selectivity assay data showing the relative binding of the cyclic peptide to the Akt2 protein, relative to the closely related Akt1 and Akt3 proteins. The sequence of the C-terminal regions for all three proteins is given.

Akt2 = Akt2 (Homo sapiens, UniProt P31751); assay: single point immunoassay, cyclic versus linear peptide (FIG. 6C); assay type: binding
Chain of Akt2 (P31751 whole entry, the tested form may be a part): as the sequence (P31751 whole entry) above
Text: The peptide libraries of Example 2 were screened against the C-terminal epitope of Akt2 that contains residues 450-481 as illustrated in FIG. 5. Those residues include the phosphorylation site […] which, for the screen exemplified in this example, was phosphorylated. The peptide libraries were first screened against synthetic peptide that represented a scrambled epitope of Akt2 450-481 to eliminate those library elements that bind to closely related epitopes. The remaining library elements were screened against a synthetically prepared polypeptide fragment representing the phosphorylated Akt2 C-terminus. The libraries A, B, C (from example 2) were all screened. Library C yielded hits, and the sequence of those hits (determined by Edman degradation) is shown in Table 3 (Tz4 indicates 4-carbon linker to triazole).
as §1

PfLDH [1] = biological target: T2, PfLDH (Plasmodium falciparum, UniProt Q27743, A73S/D96L); assay: ELISA, biotinylated ligand on streptavidin plate, GST-PfLDH, antiGST-HRP detection; assay type: binding; details: 5 μM biotinylated ligand immobilized
Protocol: (§2) Hit sequence No. 6 (HWSAN (SEQ ID NO:11)) was identified for further testing against the whole PfLDH or PvLDH proteins, results of which are presented in FIG. 10. […] A RCM cyclized version of the HWSAN (SEQ ID NO:11) peptide was synthesized. 5 μM of the biotinylated ligands were immobilized on a streptavidin plate, blocked with 5% milk and then treated with GST-PfLDH or GST-PvLDH proteins overnight. The binding was detected using antiGST-HRP antibody.
To look at the selectivity of the ligand, a single point ELISA was done with the biotinylated ligand immobilized on the streptavidin plate and treating with 10 nM PfLDH or PvLDH protein in varying concentrations of human serum.

PvLDH [2] = assay: ELISA, biotinylated ligand on streptavidin plate, GST-PvLDH, antiGST-HRP detection; assay type: binding; details: whole protein; 5 μM biotinylated ligand immobilized; FIG. 10
Protocol: as §2

PfLDH [3] = biological target: T2, PfLDH; assay: sandwich ELISA, NeutrAvidin-coated plates loaded with biotinylated ligand, pfLDH; assay type: binding; details: varying concentrations of pLDH in TBS
Protocol: (§3) The structure of the resulting binary ligand hevwh-YLGHK based on the hit sequence No. 1 and representative data is presented in FIG. 11. […] Similar ELISA was performed with pLDHs and human LDH (hLDH) in the presence of 1 and 5% (v/v) human serum to confirm the selectivity and high activity of the binary ligand in complex mixtures.

PvLDH [4] = assay: sandwich ELISA, NeutrAvidin-coated plates loaded with biotinylated ligand, pvLDH; assay type: binding; details: varying concentrations of pLDH in TBS
Protocol: as §3

Compound: CC(C)C[C@@H]1NC(=O)[C@H](Cc2c[nH]c3ccccc23)NC(=O)[C@H](CCC(=O)O)NC(=O)[C@H]([C@@H](C)O)NC(=O)[C@H](CO)NC(=O)CNC(=O)[C@](C)(N)CCCCCC/C=C\CCC[C@@](C)(C(=O)NCCOCCOCCOCCOCCOCCCC(=O)NCCNC(=O)CCCC[C@@H]2SC[C@@H]3NC(=O)N[C@@H]32)NC1=O [biotinylated peptide] (H-[R8]GSTEWL[S5][X1]-{Ethylenediamine-Biotin}; staple (Z) 1-8)
EC50 (PfHRP2 protein): 20 nM

affinity relative to the corresponding linear peptide (full-length Akt2 protein): 30 fold
binding relative to the linear variant (Akt2): improved binding
Compound: Cy(YYTYT (SEQ ID NO:4)-Tz4) (triazole (positions not given here); also: Tz4: 4-carbon linker to triazole)

Compound: HWSAN ([Pra]HWSAN; triazole (positions not given here); also: triazole cyclisation, partner residue not given here) [HWSAN (SEQ ID NO:11)]
selectivity between the PfLDH and PvLDH, triazole-cyclized versus RCM cyclic peptide (PfLDH [1]; GST-PfLDH or GST-PvLDH overnight): higher selectivity
affinity for pfLDH (PfLDH [1]; whole protein, FIG. 10): high affinity
affinity for pvLDH (PvLDH [2]): high affinity

Compound: RCM cyclic peptide: RCM cyclized version of the HWSAN peptide, biotinylated ligand (staple (positions not given here); also: RCM cyclized, olefinic residues not placed, biotinylated, site not given here)
affinity for PfLDH, RCM cyclic versus triazole-cyclized peptide (PfLDH [1]; GST-PfLDH overnight): higher affinity

Compound: hevwh-YLGHK
affinity for pfLDH (PfLDH [3]): high affinity
affinity for pvLDH (PvLDH [4]): high affinity
